Columns and labels:
Test in all cases: EMSA
Conditions in all cases: not stated in the material held
C-Ala (Escherichia coli) = system: C-Ala (Escherichia coli)
[1] = system: ED-C-Ala (Escherichia coli)
[2] = system: AlaRS full-length (Escherichia coli)

In the case of tRNAAla, 3'-labelled, the Kd (C-Ala (Escherichia coli)) is reported as 0.8 µM, the Kd [1] is reported as 2.2 µM and the Kd [2] is reported as 3 µM.

Reference: paper PMC4559334
